Legend:
Assay in all cases: ELISA; solid-phase binding assay: native (triple-helical) collagens coated at 200 μg/ml in PBS on Immulon 2HB plates overnight at 4 °C; DDR-Fc at 20 μg/ml (∼220 nM) or in a series of 0-60 μg/ml (0-667 nM) in PBS, 3 h at room temperature; anti-Fc detection, A450; apparent Kd from a one-site fit
[1] = target: SCl-DDR6 (bacterial collagen with six triplets of the human collagen III DDR-binding sequence) (Streptococcus pyogenes | human)
[2] = target: SCl-DDR4 (bacterial collagen with four triplets of the human collagen III DDR-binding sequence) (Streptococcus pyogenes | human)
[3] = target: T1, Collagen type III, pepsin-extracted from bovine skin (bovine, UniProt P04258 1-1049, 4-hydroxyproline in Yaa positions (positions not listed)); details: both partners purified
T1 construct: bovine collagen alpha1(III) chain, pepsin-extracted from skin; Homotrimer of alpha1(III) chains; native triple helix unless denatured (90 °C, 30 min); also called Bovine Collage III; collagen III; source: pepsin-extracted from bovine skin (provided by Dr. John Ramshaw)
T1 sequence (looked up): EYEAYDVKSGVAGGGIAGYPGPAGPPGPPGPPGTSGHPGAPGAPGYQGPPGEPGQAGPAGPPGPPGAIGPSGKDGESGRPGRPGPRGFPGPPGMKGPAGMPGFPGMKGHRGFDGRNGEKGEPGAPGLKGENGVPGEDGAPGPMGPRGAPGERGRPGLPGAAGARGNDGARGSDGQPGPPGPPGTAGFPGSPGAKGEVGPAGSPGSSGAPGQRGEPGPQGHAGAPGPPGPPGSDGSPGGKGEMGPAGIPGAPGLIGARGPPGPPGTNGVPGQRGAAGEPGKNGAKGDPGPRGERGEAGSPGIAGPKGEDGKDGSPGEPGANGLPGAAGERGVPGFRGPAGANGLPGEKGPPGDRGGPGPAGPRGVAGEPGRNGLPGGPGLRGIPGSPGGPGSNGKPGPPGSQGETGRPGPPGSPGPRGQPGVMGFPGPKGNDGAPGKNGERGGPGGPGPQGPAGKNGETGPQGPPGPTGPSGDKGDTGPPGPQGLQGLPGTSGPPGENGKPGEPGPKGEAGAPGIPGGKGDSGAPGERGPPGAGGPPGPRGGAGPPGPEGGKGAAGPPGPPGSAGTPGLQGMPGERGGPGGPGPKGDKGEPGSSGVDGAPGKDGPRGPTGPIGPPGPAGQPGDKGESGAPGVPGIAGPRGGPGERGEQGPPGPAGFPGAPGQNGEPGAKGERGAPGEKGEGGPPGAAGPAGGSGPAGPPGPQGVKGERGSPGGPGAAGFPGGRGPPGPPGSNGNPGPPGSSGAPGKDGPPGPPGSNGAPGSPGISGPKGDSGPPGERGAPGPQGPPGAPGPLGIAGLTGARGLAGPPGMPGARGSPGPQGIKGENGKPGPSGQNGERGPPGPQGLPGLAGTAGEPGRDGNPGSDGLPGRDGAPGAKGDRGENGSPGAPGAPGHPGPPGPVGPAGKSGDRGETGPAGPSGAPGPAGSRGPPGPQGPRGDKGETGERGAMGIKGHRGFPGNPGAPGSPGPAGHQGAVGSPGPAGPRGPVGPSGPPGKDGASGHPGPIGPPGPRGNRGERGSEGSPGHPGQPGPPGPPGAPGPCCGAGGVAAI

Molecule: DDR1-Fc (recombinant human discoidin domain receptor 1 ectodomain, Fc-tagged) (from UniProt Q08345 21-417) (Fc fusion)
- Kd [1]: 66 nM
- Kd [2]: 53.3 nM

B1: DDR2-Fc (recombinant human discoidin domain receptor 2 ectodomain, Fc-tagged) (Fc fusion, UniProt Q16832 22-399, looked up)
chain: KAQVNPAICRYPLGMSGGQIPDEDITASSQWSESTAAKYGRLDSEEGDGAWCPEIPVEPDDLKEFLQIDLHTLHFITLVGTQGRHAGGHGIEFAPMYKINYSRDGTRWISWRNRHGKQVLDGNSNPYDIFLKDLEPPIVARFVRFIPVTDHSMNVCMRVELYGCVWLDGLVSYNAPAGQQFVLPGGSIIYLNDSVYDGAVGYSMTEGLGQLTDGVSGLDDFTQTHEYHVWPGYDYVGWRNESATNGYIEIMFEFDRIRNFTTMKVHCNNMFAKGVKIFKEVQCYFRSEASEWEPNAISFPLVLDDVNPSARFVTVPLHHRMASAIKCQYHFADTWMMFSEITFQSDAAMYNNSEALPTSPMAPTTYDPMLKVDDSNTR
notes: human discoidin domain receptor 2, ectodomain; In the functional rows the receptor was full-length DDR2 in HEK293 cells; also called DDR2 ectodomain; source: HEK293-EBNA, episomally transfected, purified (rProtein A)
- Kd [3]: 20 ± 1.9 nM
- Kd [1]: 69.7 nM
- Kd [2]: 81.2 nM

B2: DDR1-Fc (recombinant human discoidin domain receptor 1 ectodomain, Fc-tagged) (Fc fusion, UniProt Q08345 21-417, looked up)
chain: DMKGHFDPAKCRYALGMQDRTIPDSDISASSSWSDSTAARHSRLESSDGDGAWCPAGSVFPKEEEYLQVDLQRLHLVALVGTQGRHAGGLGKEFSRSYRLRYSRDGRRWMGWKDRWGQEVISGNEDPEGVVLKDLGPPMVARLVRFYPRADRVMSVCLRVELYGCLWRDGLLSYTAPVGQTMYLSEAVYLNDSTYDGHTVGGLQYGGLGQLADGVVGLDDFRKSQELRVWPGYDYVGWSNHSFSSGYVEMEFEFDRLRAFQAMQVHCNNMHTLGARLPGGVECRFRRGPAMAWEGEPMRHNLGGNLGDPRARAVSVPLGGRVARFLQCRFLFAGPWLLFSEISFISDVVNNSSPALGGTFPPAPWWPPGPPPTNFSSLELEPRGQQPVAKAEGSPTA
notes: human discoidin domain receptor 1, ectodomain; IgG1 Fc, R&D Systems) stood in which experiment; In the functional rows the receptor was full-length DDR1a in HEK293 cells or endogenous DDR1 on human megakaryocytes; also called DDR1 ectodomain; source: HEK293-EBNA, episomally transfected, purified (rProtein A) (IgG2 Fc); for some experiments bought: R&D Systems (IgG1 Fc)
- Kd [3]: 15.2 ± 0.9 nM

— paper PMC4813464, “Recombinant Collagen Engineered to Bind to Discoidin Domain Receptor Functions as a Receptor Inhibitor*” (The Journal of Biological Chemistry, 2015)
